In article PMC2442654 (PLoS ONE, 2008):

Target: the molecule itself
Assay: thioflavin T fluorescence + AFM (de novo amyloid fibril formation)

B1: recombinant mouse full-length prion protein, MoPrP (23-231), unexposed (natural protein)
chain: not shown
- binding result: binds
